Legend:
[1] = biological target: cation-independent mannose-6-phosphate receptor (CI-M6PR) on cells overexpressing CI-M6PR; assay: cellular uptake assay on cells overexpressing CI-M6PR, intracellular Naglu activity read-out
Target sequence in this assay (P11717 41-2491): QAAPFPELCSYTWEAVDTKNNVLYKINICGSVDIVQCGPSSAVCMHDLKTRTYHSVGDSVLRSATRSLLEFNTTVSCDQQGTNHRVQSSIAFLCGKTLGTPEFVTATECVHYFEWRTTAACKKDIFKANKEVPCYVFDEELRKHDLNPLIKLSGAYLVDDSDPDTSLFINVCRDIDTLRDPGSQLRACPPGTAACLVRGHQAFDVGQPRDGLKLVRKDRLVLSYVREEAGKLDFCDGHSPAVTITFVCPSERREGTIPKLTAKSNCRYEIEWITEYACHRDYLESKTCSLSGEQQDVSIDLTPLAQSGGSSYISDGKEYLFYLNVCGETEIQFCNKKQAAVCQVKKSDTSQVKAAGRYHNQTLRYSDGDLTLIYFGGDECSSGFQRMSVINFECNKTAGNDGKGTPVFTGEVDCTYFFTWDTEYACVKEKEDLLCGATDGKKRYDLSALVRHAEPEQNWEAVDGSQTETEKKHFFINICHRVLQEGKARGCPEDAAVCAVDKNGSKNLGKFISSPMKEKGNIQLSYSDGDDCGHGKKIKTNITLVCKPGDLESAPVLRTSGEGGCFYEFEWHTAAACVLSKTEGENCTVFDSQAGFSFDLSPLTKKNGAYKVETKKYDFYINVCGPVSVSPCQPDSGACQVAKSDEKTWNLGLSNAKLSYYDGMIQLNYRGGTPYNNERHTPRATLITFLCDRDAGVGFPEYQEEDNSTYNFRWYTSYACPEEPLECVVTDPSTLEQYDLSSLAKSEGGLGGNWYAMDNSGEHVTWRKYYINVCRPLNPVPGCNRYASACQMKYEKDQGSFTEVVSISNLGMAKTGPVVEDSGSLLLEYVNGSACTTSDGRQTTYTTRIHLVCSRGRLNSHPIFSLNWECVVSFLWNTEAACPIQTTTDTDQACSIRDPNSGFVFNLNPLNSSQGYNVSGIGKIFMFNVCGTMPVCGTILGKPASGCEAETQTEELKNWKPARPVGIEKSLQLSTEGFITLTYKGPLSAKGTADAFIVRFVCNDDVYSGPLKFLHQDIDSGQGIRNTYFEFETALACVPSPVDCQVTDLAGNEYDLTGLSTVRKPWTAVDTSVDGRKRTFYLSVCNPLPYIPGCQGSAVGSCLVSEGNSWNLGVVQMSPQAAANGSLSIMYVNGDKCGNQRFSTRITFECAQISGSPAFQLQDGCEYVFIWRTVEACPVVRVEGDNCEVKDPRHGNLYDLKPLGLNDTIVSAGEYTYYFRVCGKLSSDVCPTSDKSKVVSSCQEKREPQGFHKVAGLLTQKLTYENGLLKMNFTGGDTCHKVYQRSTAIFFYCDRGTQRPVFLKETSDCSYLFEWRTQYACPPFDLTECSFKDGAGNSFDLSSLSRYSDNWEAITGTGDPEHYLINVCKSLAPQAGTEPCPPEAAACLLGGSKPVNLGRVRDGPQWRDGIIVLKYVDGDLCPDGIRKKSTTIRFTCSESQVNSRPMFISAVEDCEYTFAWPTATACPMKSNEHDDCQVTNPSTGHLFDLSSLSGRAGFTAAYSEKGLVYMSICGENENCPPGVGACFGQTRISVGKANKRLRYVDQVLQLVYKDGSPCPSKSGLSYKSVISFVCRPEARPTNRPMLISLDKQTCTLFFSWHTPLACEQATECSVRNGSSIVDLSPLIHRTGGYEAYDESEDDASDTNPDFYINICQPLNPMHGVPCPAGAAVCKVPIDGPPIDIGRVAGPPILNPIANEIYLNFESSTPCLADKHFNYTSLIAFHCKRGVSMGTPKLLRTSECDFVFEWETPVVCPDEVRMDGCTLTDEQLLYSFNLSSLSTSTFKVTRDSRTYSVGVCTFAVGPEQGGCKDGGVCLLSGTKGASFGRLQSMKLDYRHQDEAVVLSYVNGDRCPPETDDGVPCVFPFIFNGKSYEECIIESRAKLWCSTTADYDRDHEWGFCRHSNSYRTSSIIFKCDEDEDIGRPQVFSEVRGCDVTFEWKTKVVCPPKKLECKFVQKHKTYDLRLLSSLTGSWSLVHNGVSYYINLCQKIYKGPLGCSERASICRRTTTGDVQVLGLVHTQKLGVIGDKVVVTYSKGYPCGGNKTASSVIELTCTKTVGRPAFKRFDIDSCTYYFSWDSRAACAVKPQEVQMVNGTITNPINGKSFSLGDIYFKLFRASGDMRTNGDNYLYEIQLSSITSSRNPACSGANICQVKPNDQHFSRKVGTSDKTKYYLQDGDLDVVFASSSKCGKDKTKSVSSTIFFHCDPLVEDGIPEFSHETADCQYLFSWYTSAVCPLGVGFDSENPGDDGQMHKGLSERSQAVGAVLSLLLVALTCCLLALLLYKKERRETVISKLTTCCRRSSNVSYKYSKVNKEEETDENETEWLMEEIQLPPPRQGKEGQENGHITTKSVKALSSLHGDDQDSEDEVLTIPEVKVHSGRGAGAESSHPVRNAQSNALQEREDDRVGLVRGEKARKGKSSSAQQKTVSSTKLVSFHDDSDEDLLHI

[2] = biological target: cation-independent mannose-6-phosphate receptor (CI-M6PR) on cells overexpressing CI-M6PR; assay: cellular uptake assay on cells overexpressing CI-M6PR, intracellular I2S enzyme activity read-out

Substance | Kd [1] [µM] | Kd [2] [µM]
Naglu-LIF fusion protein (produced in HT-1080 cells) (enzyme) | 0.178 | 
Naglu-LIF fusion protein produced in HT-1080 cells overexpressing GNPT (enzyme) | 0.015 | 
recombinant iduronate 2-sulfatase (I2S) produced in HT-1080 cells co-overexpressing GNPT (from UniProt P22304 26-550) (enzyme) |  | 0.00165
recombinant iduronate 2-sulfatase (I2S) produced in HT-1080 cells overexpressing I2S alone (from UniProt P22304 26-550) (enzyme) |  | 0.0279
